In the supplement of paper PMC12042874:
± gives the uncertainty stated by the source.

Assay: amyloid nucleation score (Sup35N fusion, yeast selection) (log enrichment); library NNK2; higher = more nucleation; inactive = no reads after selection
Procedure, shortened: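 On medium lacking adenine and uracil, psi-negative yeast expressing peptides of 20 random codons fused to Sup35N were grown 7 days at 30°C after a 24-hour induction with 100 μM copper sulfate. Illumina sequencing of input and output plasmid inserts gave the reads, and sequences under 100 input reads were excluded. The nucleation score is the DiMSum log enrichment of output over input reads, centred on the mode score of non-aggregating sequences.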

| Substance | amyloid nucleation score |
| --- | --- |
| TVSYKWSSMEVITKYKGWSR | 0.897 ± 0.28 |
| TVTSLRSLPIMSMPCRETTD | 1.1 ± 0.25 |
| TVVKDHEYKEWSDWSF | inactive |
| TVWNHVTGLDKNSRCVTQSS | 0.509 ± 0.81 |
| TWESSV | 0.613 ± 0.2 |
| TWGGFRY | 1.76 ± 0.48 |
| TWHSIWREYSGTFTHTYWTD | 0.555 ± 0.62 |
| TWMSYFVHVSVGFLVYYLYI | -0.919 ± 1 |
| TWTHCIGSLIR | -0.855 ± 0.76 |
| TYATNSRRNRNVYLRPHCQI | 0.117 ± 0.3 |
| TYDSYRVIYISY | -0.372 ± 0.61 |
| TYFYSWYGKYPADSRFY | -0.488 ± 1 |
| TYIRDRHIVYWGHTGSFIYM | 1.63 ± 0.18 |
| TYLSVGMNLLVGSPFNYNDL | inactive |
| TYPMMGQGFC | 0.131 ± 0.55 |
| TYPNKADPLFRS | 0.008 ± 0.46 |
| TYSFVSLTYDSVTVFALTRC | -0.326 ± 0.49 |
| TYSTSSLYRMEIHLAFSASV | -0.22 ± 1 |
| TYVLAIGLFWRYPF | 3.22 ± 0.083 |
| TYVVKLLIGWDLDAIFTVLS | 0.499 ± 0.37 |
| VACCFNSQYSEAI | 3.99 ± 0.076 |
| VAFIYCIV | 4.99 ± 0.068 |
| VAFKRLGNMSSGTFSWAMLN | 0.894 ± 0.74 |
| VAKAAHFSLVIMYLFK | 0.01 ± 0.43 |
| VASKGCRYYNRLADFLHWSK | 0.027 ± 0.74 |

| Substance | amyloid nucleation score |
| --- | --- |
| VCACLNMTCVFFILTGNGVK | 7.59 ± 0.039 |
| VCCVP | -1.09 ± 1.1 |
| VCDFIW | -1.48 ± 0.63 |
| VCDGV | -0.582 ± 0.44 |
| VCLFLSNQRMWYVEFNTC | -0.549 ± 1 |
| VCYGVSFPIGWGYQYHNRNV | inactive |
| VDFVIGLLKPTVVKNHGCWS | -0.301 ± 0.65 |
| VDHSMVCWVRCMGC | 0.19 ± 1.1 |
| VDIVFSPSTNQWFLFLNCLV | 4.24 ± 0.038 |
| VDMGGDPWMVNRCELSLRLW | 0.881 ± 0.43 |
| VDRKWRKT | -0.373 ± 1 |
| VDVFGVCRRSVYVA | 0.988 ± 0.4 |
| VDWCWGLWT | 0.945 ± 0.24 |
| VDWFLYFCSPTFCHVL | 8.741 ± 0.063 |
| VEARKLYQCMCVVRC | -0.143 ± 0.28 |
| VEFILKVGYAFTATCPCGFW | -0.711 ± 0.79 |
| VEGTPMFVWINWGVGKVGQS | 3.42 ± 0.051 |
| VEHARGDRCCRQDYGVQQYK | 2.68 ± 0.23 |
| VEHEFVQILT | -0.733 ± 0.36 |
| VELQP | 1.18 ± 0.29 |
| VFFVHSYND | inactive |
| VFGSEVSNIRRESWRSLIGQ | 0.756 ± 0.18 |
| VFGWSVRFNYYIFMSMANDV | 3.62 ± 0.13 |
| VFIVMYSKFLKHVYGTTLTN | inactive |
| VFIVYLWWTLRSWHIRVLIS | -0.52 ± 1.1 |

| Substance | amyloid nucleation score |
| --- | --- |
| VFLTGCIPR | 0.052 ± 0.37 |
| VFMGNSLHFRRSTVAHWRSN | 1.39 ± 0.41 |
| VFPQLCDVSLE | -0.476 ± 1.1 |
| VFSDWVSSKPLRSVVPCFCN | -0.496 ± 1.1 |
| VFSEWWFTANAACSAQCYEW | 0.789 ± 0.33 |
| VFSPFQFNFWWSFCVNFALV | 4.367 ± 0.035 |
| VFSSNEYFPLYSVFIVSEIL | 2.47 ± 0.074 |
| VFTKLTLSSI | 0.227 ± 1.1 |
| VFTTLDWTSKYALIR | 0.56 ± 0.5 |
| VFVARITSRTIIVLNESGFE | 5.21 ± 0.089 |
| VFVERMPVGFHPFRIKIILT | 1.01 ± 0.59 |
| VFWSGAILLLAKCIGGMSIL | -0.47 ± 0.32 |
| VFYRASRSFKQSVRAPVGLR | -0.675 ± 0.55 |
| VGALCGYAVVSWYSWSLSVL | 1.83 ± 0.11 |
| VGCIYRTQDCCSRDMVCIRV | 0.071 ± 0.79 |
| VGCPEMGLVSLGSLLRLGSA | 0.968 ± 0.39 |
| VGELVMLFSKYSSVNVRGFA | 3.04 ± 0.075 |
| VGFVCDLTGMNMGRFFKCGN | inactive |
| VGGIWE | -0.427 ± 0.45 |
| VGGYDNLSILISTLQSSIFS | -0.779 ± 0.37 |
| VGIDYV | inactive |
| VGIGVAERCDSRWLL | 0.886 ± 0.3 |
| VGILSRWLRGRFTVTRWLWC | -0.945 ± 1.1 |
| VGIRRYVRFKVLHNRVNVHE | inactive |
| VGLACSLS | -1.07 ± 0.78 |

| Substance | amyloid nucleation score |
| --- | --- |
| VGSDWKSVNIFAVDEPGSTY | -1.43 ± 0.55 |
| VGSVK | -0.394 ± 1.1 |
| VGVIAMPLFLCMGQDSLLFV | 4.6 ± 0.061 |
| VHARYMIFWKWTILLHS | inactive |
| VHFCLKH | 0.241 ± 0.22 |
| VHNCCTVVSLRREDESVYTN | -0.146 ± 0.38 |
| VHNVLKRVYSYGFFNKEHIY | inactive |
| VIAKDLMHMLPLYM | 0.37 ± 0.25 |
| VICCEVLPSAPLSLWMNLKV | -0.469 ± 1.1 |
| VIEIWSN | -0.531 ± 1.1 |
| VIFVVNIFHLYWLRVC | 0.748 ± 0.58 |
| VIIRSFR | -0.629 ± 0.34 |
| VIKFDQISCNSFPNSLL | -0.479 ± 0.55 |
| VISASSVAP | 0.557 ± 0.31 |
| VISSMFNLIKYGSVWSLRGL | -0.706 ± 1 |
| VITVTPGGHVPWVLASNGNI | -1.53 ± 0.78 |
| VIVKAVVDIIGSN | 0.147 ± 0.76 |
| VIYFHHVTYSIYPLL | 0.561 ± 0.62 |
| VIYIWVSVPITPWESIIRGI | inactive |
| VKEGSLCFYMRRRTGQL | -0.627 ± 0.76 |
| VKHVIAHTRG | 1.52 ± 0.38 |
| VKLVCSDFKMACTSSSMSVD | 0.861 ± 0.24 |
| VKRYDS | inactive |
| VKVRFFSHVNSMMSLKSIVV | inactive |
| VKWKLGLTWMVVIIDGVLCV | 0.963 ± 0.35 |

| Substance | amyloid nucleation score |
| --- | --- |
| VLDAHLY | inactive |
| VLDCRFKCCNFTRDLT | 7.67 ± 0.043 |
| VLDHDGVVVWNFFPHMYSDP | 4.63 ± 0.05 |
| VLECFFVA | 0.183 ± 0.5 |
| VLFCL | -0.806 ± 0.48 |
| VLFDF | 0.652 ± 0.56 |
| VLFGLKYFGSAGIQMSTCDK | 3.53 ± 0.066 |
| VLFRELRSTTASRTGDGDMM | 4.61 ± 0.057 |
| VLFSDA | -0.08 ± 1 |
| VLLHCRSICGTRLALPLTGR | 1.57 ± 0.4 |
| VLLSKGRNHSPCVHILAIIP | 0.494 ± 0.8 |
| VLNGGRGVIRLYRVFAGKRF | -1.06 ± 0.47 |
| VLPGKVRPFCGSMCNSFFSL | 0.157 ± 1 |
| VLRGPS | 0.302 ± 0.56 |
| VLRIRLQAGEGKRCE | 4.878 ± 0.044 |
| VLRKEFVYSGCWAKRRLG | 0.165 ± 0.17 |
| VLRLRGLRRWI | 0.638 ± 0.23 |
| VLSPQVKRSHTFLGNDLRTD | 4.64 ± 0.072 |
| VLTSFGLW | 5.206 ± 0.037 |
| VLVMVRTFNGNILPFLAPDL | 5.714 ± 0.024 |
| VLWTIKGFPC | 1.63 ± 0.11 |
| VLYPMLNGGFMESLN | inactive |
| VLYRLKVKAQWSLS | 0.878 ± 0.28 |
| VMAILCTNARQLEDSLRQVE | 0.452 ± 0.43 |
| VMCIG | -0.33 ± 0.41 |

| Substance | amyloid nucleation score |
| --- | --- |
| VMFYRRYYFKSMANLVDTFR | -0.932 ± 0.48 |
| VMGNFRFYRSMLAFDYDEGV | 1.14 ± 0.18 |
| VMLNWDMGDFRA | inactive |
| VMLRYNSYGNYLLRWHTDDA | -0.843 ± 0.44 |
| VMQVVLGNMLMRRSQVLYNW | -0.62 ± 0.41 |
| VMRHERTNFIYSKWWGFVEE | -0.011 ± 0.65 |
| VMRIVMIDMKSESWSTERVS | 0.611 ± 0.57 |
| VMSNFFVLRNGCWPMGRG | 6.124 ± 0.049 |
| VMVCGTFANKLRLPVSIELT | 0.534 ± 0.28 |
| VMWDRRHFMAVSSDLEDKTR | 0.438 ± 0.16 |
| VNGHLNFAS | 0.712 ± 0.56 |
| VNGSIARYGVCFVARCHVIS | 0.246 ± 0.45 |
| VNIFVLLYLYVWNASIVITF | -0.221 ± 1.1 |
| VNLTSFYLITDCTLNGQQWR | 8.654 ± 0.052 |
| VNMIRRTINSGVYRWSFQLQ | 1.14 ± 0.54 |
| VNSLFLVVRYGG | 5.25 ± 0.05 |
| VNSLSGHFFVFFRLLFTTMV | -1.1 ± 0.41 |
| VNSLYCM | -0.447 ± 1.1 |
| VNWGNGVFAGFLWYYVRPCH | -1.03 ± 1.1 |
| VNYLPWLWSMCNRVH | -0.943 ± 0.61 |
| VNYRNLMKESLCILRQTYTL | 0.031 ± 0.65 |
| VPGDDPSIVTVMQMYGFSLI | -0.385 ± 0.64 |
| VPLRA | 0.002 ± 0.55 |
| VPLTPLGENTECLSRARDIT | 0.826 ± 0.45 |
| VPNVCAGYQPSETETYVLVR | 0.185 ± 0.65 |

| Substance | amyloid nucleation score |
| --- | --- |
| VPPPVGVIYGIQ | 0.637 ± 0.32 |
| VQATGADVFWDW | -0.199 ± 0.76 |
| VQCVMSESMDELYSLVLRCP | 0.998 ± 0.28 |
| VQDQNRREAEVSSKGGTCSW | -0.42 ± 0.35 |
| VQDYKSVRYVGNSRIRVGGS | -0.392 ± 0.79 |
| VQFTRSVRFTLQFCARSDKT | 6.91 ± 0.045 |
| VQGSEKYGVVLFEY | 5.83 ± 0.094 |
| VQIKLRQFTNKAFYTESMST | -0.053 ± 0.63 |
| VQSTRIISCVLCLGDWLEDY | 10.19 ± 0.022 |
| VRDLPMCNPYIRYTLFCQVS | -0.497 ± 0.45 |
| VRFLVISINAYSVDVPHISI | -1.63 ± 1.1 |
| VRFVINSWLTCVYERNIKLL | -0.058 ± 0.22 |
| VRGSATEFTILVVVVVLGKR | 0.182 ± 0.42 |
| VRGYCGFALQLVRCEWRICS | 7.272 ± 0.06 |
| VRNFCFDYSVWYENGLTWKR | 0.527 ± 0.66 |
| VRPMLGGSNRLHFSMVFDDD | 5.964 ± 0.059 |
| VRSPCVDVYFPYSLVLDMCL | 0.614 ± 0.62 |
| VRSVLVRKGTWARCTRMVAM | 1.05 ± 0.56 |
| VRSWTGPSEVQNCKSEFSGA | 0.731 ± 0.28 |
| VRTNDKYQEVFPSVYYNLGN | -0.944 ± 1.1 |
| VRTTYYNELETFLVLTPAMR | 1.36 ± 0.22 |
| VRVHCLHLVYYYSQCPRYNN | -0.277 ± 1.1 |
| VRYMLRTLEYMSRVGCSISH | 0.101 ± 0.76 |
